Positions of bridges follow the written chain, without caps; N, C: chain ends. No end group written: not given here.
B1: 12-amino acid cyclic peptide B2 with C-terminal amidation (B2-NH2) (peptide)
peptide: CVFAHNYDYLVC-NH2
modifications: disulfide 1-12; N-terminus assumed
SMILES: CC(C)C[C@@H]1NC(=O)[C@H](Cc2ccc(O)cc2)NC(=O)[C@H](CC(=O)O)NC(=O)[C@H](Cc2ccc(O)cc2)NC(=O)[C@H](CC(N)=O)NC(=O)[C@H](Cc2c[nH]cn2)NC(=O)[C@H](C)NC(=O)[C@H](Cc2ccccc2)NC(=O)[C@H](C(C)C)NC(=O)[C@@H](N)CSSC[C@@H](C(N)=O)NC(=O)[C@H](C(C)C)NC1=O
notes: cyclic; purity over 95% by HPLC; source: synthetic peptide, bought as custom peptide (AnaSpec, NeoMPS, Biomatik or GenScript)
B2: 12-amino acid cyclic peptide B2 (without C-terminal amidation) (peptide)
peptide: CVFAHNYDYLVC-OH
modifications: disulfide 1-12; N-terminus assumed
SMILES: CC(C)C[C@@H]1NC(=O)[C@H](Cc2ccc(O)cc2)NC(=O)[C@H](CC(=O)O)NC(=O)[C@H](Cc2ccc(O)cc2)NC(=O)[C@H](CC(N)=O)NC(=O)[C@H](Cc2c[nH]cn2)NC(=O)[C@H](C)NC(=O)[C@H](Cc2ccccc2)NC(=O)[C@H](C(C)C)NC(=O)[C@@H](N)CSSC[C@@H](C(=O)O)NC(=O)[C@H](C(C)C)NC1=O
notes: as for B1

Tests used:
[1] = molecular target: T1, Prostate-specific antigen (PSA or kallikrein-related peptidase-3, KLK3), major form of active PSA (isoform … (human, UniProt P07288 25-261)); test: cell-based or functional assay
T1 sequence (P07288 25-261): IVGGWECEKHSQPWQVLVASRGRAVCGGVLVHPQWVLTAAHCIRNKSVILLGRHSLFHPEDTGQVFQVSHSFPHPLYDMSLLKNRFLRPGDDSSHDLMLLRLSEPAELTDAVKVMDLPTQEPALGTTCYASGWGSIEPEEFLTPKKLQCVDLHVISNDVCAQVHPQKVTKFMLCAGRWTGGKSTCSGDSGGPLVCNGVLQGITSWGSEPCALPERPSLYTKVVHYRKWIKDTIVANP

[2] = molecular target: T1, Prostate-specific antigen (PSA or …); test: SPR; Biacore T100; PSA amine-coupled to a CM5 chip (2000-3900 RU); alpha-chymotrypsin surface as reference, subtracted; peptides 1.2-600 uM flowed in PBS pH 7.4 (6.7 mM PO4, 0.15 M NaCl), 40 ul/min, 25 C, contact 60 s, dissociation 180 s; Steady State Affinity model; details: both partners purified

Row | Binder | [peptide]2V: peptide concentration with two-fold stimulation of PSA activity, chromogenic substrate S-2586 [1] [µM] | [peptide]2V: peptide concentration with two-fold stimulation of PSA activity, fluorogenic substrate 4-morpholinecarbonyl-HSSKLQ-AMC [1] [µM] | Kd [2] [µM]
1 | CVAYCIEHHCWTC (disulfide 1-13, 5-10) [13-amino acid double cyclic peptide C4] | 1.55 | 1.36 | –
2 | B1 | 3.33 | 2.94 | 56.5
3 | B2 | – | – | 73.6
